# Measurements published in patent US20240294651A1 (KYMAB, published 2024).
# Assays:
# [1] = target: T1, human CXCR4 (cell-expressed) (human, UniProt P61073 1-352); assay: cell-based or functional assay
# [2] = target: T1, human CXCR4 (cell-expressed); assay: cell-based or functional assay; remark: listed apart in the source
# [3] = target: T2, terbium-labelled SNAP-CXCR4 on HEK-293 cells (Cisbio C1TT1CXCR4) (human, UniProt P61072 1-352 (Pan troglodytes entry), terbium label on the SNAP tag); assay: TR-FRET (Tag-lite) competition with AlexaFluor 647-CXCL12 on terbium-labelled SNAP-CXCR4 HEK-293 cells
# T2 construct: Bought assay-ready cells; also called CXCR4 expressing cells; not shown: SNAP tag
# T2 sequence (P61072 whole entry): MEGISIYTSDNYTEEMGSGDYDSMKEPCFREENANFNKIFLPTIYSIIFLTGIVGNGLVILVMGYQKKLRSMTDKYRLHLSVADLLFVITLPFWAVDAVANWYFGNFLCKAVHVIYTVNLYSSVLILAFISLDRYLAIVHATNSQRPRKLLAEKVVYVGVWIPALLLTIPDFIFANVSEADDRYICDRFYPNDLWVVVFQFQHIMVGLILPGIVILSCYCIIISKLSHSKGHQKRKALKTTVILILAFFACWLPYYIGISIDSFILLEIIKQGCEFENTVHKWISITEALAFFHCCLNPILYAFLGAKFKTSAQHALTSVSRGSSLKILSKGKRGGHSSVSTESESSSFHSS
# [4] = target: T3, biotinylated CXCR4-virus like particle (Integral Molecular, Lot INT-1793B) (human, UniProt P61073 1-352, VLP biotinylated, sites not stated); assay: SPR (Biacore 8K), biotinylated CXCR4 VLP captured on SA chip, Fab as analyte, 25 C, 1:1 model
# T3 construct: also called hCXCR4 VLP; CXCR4 VLP
# T3 sequence (P61073 whole entry): as the sequence (P61072 whole entry) above
# [5] = target: T1, human CXCR4 (cell-expressed); assay: cell-based or functional assay; remark: listed apart in the source
# [6] = target: T4, cynomolgus CXCR4 (cynomolgus monkey, UniProt Q28474 1-352); assay: cell-based or functional assay
# T4 sequence (Q28474 whole entry): as the sequence (P61072 whole entry) above, with M24I, N35H, K38R, R146K, N176S counted along it
# [7] = target: T1, human CXCR4 (cell-expressed); assay: cell-based or functional assay; remark: listed apart in the source
# [8] = target: T1, human CXCR4 (cell-expressed); assay: cell-based or functional assay; remark: listed apart in the source
# [9] = target: T1, human CXCR4 (cell-expressed); assay: cell-based or functional assay; remark: listed apart in the source
# [10] = target: T1, human CXCR4 (cell-expressed); assay: cell-based or functional assay; remark: listed apart in the source
# [11] = target: T4, cynomolgus CXCR4; assay: flow cytometry on CHO-S cells expressing cynomolgus CXCR4
# Experimental: Cynomolgus monkey CXCR4 expressing CHO-S cells were plated at 100 uL/well of cells at 1 million of cells/mL (0.1 million of cells/well) into a 96 well V-bottom plate (Greiner). Plates were centrifuged at 300×g for 3 min at 4° C. and supernatant discarded. […] Primary antibody dilutions were added to cells (50 μL/well) and cell pellets resuspended by pipetting. Plates was incubated for 1 h at 4° C. 100 μL/well of PBS, was added and plates centrifuged at 300×g for 3 min at 4° C. and supernatant discarded. This step was repeated twice. […] Cells were resuspended by pipetting. Plates were incubated for 1 h at 4° C. 100 μL/well PBS, was added and plates centrifuged at 300×g for 3 min at 4° C. and supernatant discarded. This step was repeated twice. Finally, cells were resuspended in 100 μL/well of PBS and analysed on CytoFLEX (Beckman Coulter).
# Binding of antibodies to cynomolgus CXCR4 expressed on CHO-S cells was analysed by gating the main cell population using forward and side scatter (Flow Jo, Flow Jo LLC) to allow for doublet discrimination. […] EC₅₀ values were calculated by transforming the data and fitting a 4-parameter logistic regression curve to each antibody titration.
# [12] = target: T5, human CXCR7 (human, UniProt P25106 1-362); assay: flow cytometry on CHO-S cells expressing human CXCR7, Alexa Fluor 647 secondary antibody, GeoMean (647 nm)
# T5 construct: Expressed on CHO-S cells
# T5 sequence (P25106 whole entry): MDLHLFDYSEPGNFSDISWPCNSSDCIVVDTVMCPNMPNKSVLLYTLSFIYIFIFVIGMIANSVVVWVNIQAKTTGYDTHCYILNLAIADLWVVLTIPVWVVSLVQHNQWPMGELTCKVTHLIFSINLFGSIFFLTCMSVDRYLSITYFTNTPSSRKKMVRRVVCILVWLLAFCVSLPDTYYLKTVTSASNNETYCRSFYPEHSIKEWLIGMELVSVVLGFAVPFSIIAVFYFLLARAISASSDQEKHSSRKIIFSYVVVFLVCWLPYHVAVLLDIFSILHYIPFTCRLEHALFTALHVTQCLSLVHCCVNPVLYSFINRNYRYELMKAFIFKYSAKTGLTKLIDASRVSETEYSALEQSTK
# Experimental: CXCR7 expressing CHO-S cells were plated at 100 μL/well of cells at 1 million of cells/mL (0.1 million of cells/well) into a 96 well V-bottom plate (Greiner). Plates were centrifuged at 300×g for 3 min at 4° C. and supernatant discarded. […] Primary antibody dilutions were added to cells (100 μL/well) and cell pellets resuspended by pipetting. Plate was incubated for 1 h at 4° C. 100 μL/well of PBS, was added and plates centrifuged at 300×g for 3 min at 4° C. and supernatant discarded. This step was repeated twice. […] Cells were resuspended by pipetting. Plate was incubated for 1 h at 4° C. 100 μL/well of PBS, was added and plates centrifuged at 300×g for 3 min at 4° C. and supernatant discarded. This step was repeated twice. Finally, cells were resuspended in 100 μL/well of PBS and analysed on CytoFLEX (Beckman Coulter).
# Binding of antibodies to CXCR7 expressed on CHO-S cells was analysed by gating the main cell population using forward and side scatter (Flow Jo, Flow Jo LLC) to allow for doublet discrimination.
# [13] = target: T6, CXCR4 StaR nanodiscs; assay: SPR (Biacore T200), IgG4-PE antibody captured by anti-IgG on CM5, CXCR4 StaR nanodiscs at 250 nM as analyte, 25 C, 1:1 model; N = 1
# T6 construct: Purified receptor in lipid-protein nanodiscs; also called StaR CXCR4; thermostabilised CXCR4
# Experimental: Anti-IgG antibodies were immobilised on chip CM5 (GE Healthcare) by amine coupling. […] A channel with no anti-CXCR4 antibodies captured was used as a reference. […] The blank-subtracted sensorgrams were fitted to the 1:1 interaction model using the Biacore T200 evaluation software. The assay was run at 25° C. using 0.01 M HEPES pH 7.4, 0.15 M NaCl as running buffer.
# T1 sequence (P61073 whole entry): as the sequence (P61072 whole entry) above
binder,measurement,setting,value
"CL-82473 (antibody, human IgG4 S228P, kappa, V domains shown, Tested in human IgG4-PE format) VH: QVQLVESGGGVVQPGRSLRLSCAASGFTFSSYGMHWVRQAPGKGLEWVTVILYGGSNKYYADSVKGRFTISRDNSKNTLYLQMNSLRAEDTAVYYCARGMLTYYYSSGFDYWGQGTLVTVSS VL: not shown","IC50, cAMP HTRF assay, CXCR4 BacMam HEK-293 cells, 5.5 nM CXCL12",[1],> 1000 nM
same,"% Max Inhibition, beta-arrestin reporter assay, Tango CXCR4-bla U2OS cells",[2],85%
same,"IC50, beta-arrestin reporter assay, Tango CXCR4-bla U2OS cells, 30 nM CXCL12",[2],> 120 nM
same,% Max Inhibition,[3],98%
same,IC50,[3],1.2 nM
"CL-82562 (antibody, human IgG4 S228P, kappa, V domains shown, Tested in human IgG4-PE format) VH: QVQLVESGGGVVQPGRSLRLSCTASGFTFSNYAMHWVRQAPGKGLEWVAVISYDGSNKYCADSVKGRFTISRDNSKNTLYLQMNSLRAEDTAVYYCARGPLARRHYYYYGMDVWGQGTTVTVSS VL: DIQMTQSPSSLSASVGDRVTITCRASQGIRNDLGWYQQKPGKAPKRLIYGASSLQSGVPSRFSGSGSGTEFTLTISSLQPEDFATYYCLQHNSYPRTFGQGTKVEIKR","% Max Inhibition, cAMP HTRF assay, CXCR4 BacMam HEK-293 cells",[1],92%
same,"IC50, cAMP HTRF assay, CXCR4 BacMam HEK-293 cells, 5.5 nM CXCL12",[1],99 nM
same,"% Max Inhibition, beta-arrestin reporter assay, Tango CXCR4-bla U2OS cells",[2],101%
same,"IC50, beta-arrestin reporter assay, Tango CXCR4-bla U2OS cells, 30 nM CXCL12",[2],0.52 nM
same,% Max Inhibition,[3],100%
same,IC50,[3],0.86 nM
"CL-82458 Fab fragment (Fab, V domains shown, Purified Fab fragment) VH: EVQLVESGGDLVQPGGSLRLSCAASGFTFYSYAMNWVRQAPGKGLKWVSGISGSGDITYYADSVKGRFTISRDNSKNTLYLQMHSLRPEDTAIYYCAKGQLERRYYKYYGMDVWGQGTTVTVSS VL: DIQMTQSPSSLSASVGDRVTITCRANQGIRNDLGWYQQKPGKAPKRLIYGASSLKSGVPSRFSGSGSGTEFTLTISSLQPEDFATYYCLQQNSYPLTFGGGTKVEIK",Kd,[4],1.26 nM
same,koff,[4],0.00111 s⁻¹
same,kon,[4],887000 M⁻¹ s⁻¹
"CL-82658 Fab fragment (Fab, V domains shown, Purified Fab fragment) VH: QVQLVESGGGVVQPGRSLRLSCAASGFSFSSYGMHWVRQAPGKGLEWVAVISYDGSNKYYADSVKGRFTISRDNSKNTLYLQMNSLRGEDTAVYYCSKGSLTPRRGYYYSYGMDVWGQGTTVTVSS VL: DIQMTQSPSSLSASVGDRVTITCRASQGIRNDLSWYQQKPGKAPKRLIYAASSLQSGVPSRFSGSGSGTEFTLTISSLQPEDFATYYCLQHNGYPFTFGPGTKVDIK",Kd,[4],0.69 nM
same,koff,[4],0.000423 s⁻¹
same,kon,[4],616000 M⁻¹ s⁻¹
"CL-82574 Fab fragment (Fab, V domains shown, Purified Fab fragment) VH: QVQLVESGGGVVQPGRSLRLSCAASGFTFYSYGMHWVRQAPGKGLEWVAVIWYGGTNKYYADSVKGRFTISRDNSKNTLYLQMNSLTAEDTAVYYCARGQLERRRGGLNIWGQGTVVTVSS VL: DIQMTQSPSSLSASVGDRVTITCRASQGVRDDLGWYQQKPGKAPKRLIYAASSLQSGVPSRFSGSGSGTEFTLTISSLQPEDFATYYCLQHNSYPFTFGPGTKVDIK",Kd,[4],0.52 nM
same,koff,[4],0.000481 s⁻¹
same,kon,[4],927000 M⁻¹ s⁻¹
"CL-83083 (antibody, human IgG4 S228P, lambda, Tested in human IgG4-PE format; lambda light chain; also called CL-83083 (IgG4-PE format)) heavy: not shown light: QAGLTQPPSVSKGLRQTATLTCTGNSNNVGNLGAAWLQQHQGHPPKLLSYRNNNRPSGISERFFASRSGNTASLTITGLQPEDEADYYCSAWDSSLSAWVFGGGTKLTVLGQPKAAPSVTLFPPSSEELQANKATLVCLISDFSPGAVTVAWKADSSPVKAGVETTTPSKQSNNKYAASSYLSLTPEQWKSHKSYSCQVTHEGSTVKKTVAPTECS","% Max Inhibition, cAMP HTRF assay, CXCR4 BacMam HEK-293 cells",[1],80%
same,"IC50, cAMP HTRF assay, CXCR4 BacMam HEK-293 cells, 5.5 nM CXCL12",[1],36 nM
same,"% Max Inhibition, beta-arrestin reporter assay, Tango CXCR4-bla U2OS cells",[2],98.9%
same,"IC50, beta-arrestin reporter assay, Tango CXCR4-bla U2OS cells, 30 nM CXCL12",[2],0.43 nM
same,"Max Signal (Total Overlap Object Area), internalisation on Ramos cells, live-cell imaging",[5],9670 µm^2 per image
same,"% Maximum Inhibition, cAMP HTRF assay, cyno CXCR4 BacMam HEK-293 cells",[6],84%
same,"IC50, cAMP HTRF assay, cyno CXCR4 BacMam HEK-293 cells",[6],11.8 nM
same,"% effect (remaining % of CXCL12 response), DMR assay, human T-cells",[7],5.1%
same,"IC50, label-free DMR assay, isolated human T-cells, EC80 CXCL12",[7],3.58 nM
same,"IC50 n = 1, Jurkat chemotaxis towards 30 nM CXCL12 (IncuCyte)",[8],0.47 nM
same,"IC50 n = 2, Jurkat chemotaxis towards 30 nM CXCL12 (IncuCyte)",[8],0.43 nM
same,"IC50 n = 3, Jurkat chemotaxis towards 30 nM CXCL12 (IncuCyte)",[8],0.34 nM
same,"Mean IC50, Jurkat chemotaxis towards 30 nM CXCL12 (IncuCyte)",[8],0.41 nM
same,"% of max migration at 120 nM Ab, primary naïve T-cell trans-well migration",[9],25.7%
same,"IC50, primary naïve T-cell trans-well migration",[9],1.55 nM
same,"IC50 of antibody in presence of 30 nM CXCL12, human T-cell transwell chemotaxis",[10],0.35 not printed (nM assumed)
same,EC50,[11],11 nM
same,% Max Inhibition,[3],96%
same,IC50,[3],1.74 nM
same,binding result,[12],no binding (tested: log(M) about -6.9 (about 1.2e-7 M))
same,Kd,[13],7.1 nM
same,koff,[13],0.00097 s⁻¹
same,kon,[13],140000 M⁻¹ s⁻¹
"CL-83083-2 (antibody, human IgG4 S228P, lambda, Same variable domains as CL-83083, different lambda constant region; tested in human IgG4-PE format; also called CL-83083-2 (IgG4-PE format)) heavy: not shown light: QAGLTQPPSVSKGLRQTATLTCTGNSNNVGNLGAAWLQQHQGHPPKLLSYRNNNRPSGISERFFASRSGNTASLTITGLQPEDEADYYCSAWDSSLSAWVFGGGTKLTVLGQPKAAPSVTLFPPSSEELQANKATLVCLISDFYPGAVTVAWKADSSPVKAGVETTTPSKQSNNKYAASSYLSLTPEQWKSHKSYSCQVTHEGSTVEKTVAPTECS","% Max Inhibition, cAMP HTRF assay, CXCR4 BacMam HEK-293 cells",[1],93%
same,"IC50, cAMP HTRF assay, CXCR4 BacMam HEK-293 cells, 5.5 nM CXCL12",[1],44 nM
same,"% Max Inhibition, beta-arrestin reporter assay, Tango CXCR4-bla U2OS cells",[2],96.9%
same,"IC50, beta-arrestin reporter assay, Tango CXCR4-bla U2OS cells, 30 nM CXCL12",[2],0.79 nM
same,"% effect (remaining % of CXCL12 response), DMR assay, human T-cells",[7],4.4%
same,"IC50, label-free DMR assay, isolated human T-cells, EC80 CXCL12",[7],3.98 nM
same,% Max Inhibition,[3],97%
same,IC50,[3],3.92 nM
"CL-82558 Fab fragment (Fab, V domains shown, Purified Fab fragment) VH: QVQLQESGPGLVKPSQTLSLTCTVSGGSISSGGYYWSWIRQVPGKGLEWIGYISYSGNTFYSPSLKSRVTISVDTSENKFSLRLTSVTAADTAVYFCARDRRIPMLRGVKGYYYGLDVWGQGTTVTVSS VL: DIVMTQSPLSLPVIPGEPASISCRSSQSLLHRNGYKYLDWYLQKPGQSPQLLIYLGSNRASGVPARFSGSGSGTDFTLKISRVEAEDVGVYYCMQALQTPWTFGQGTKVEIK",Kd,[4],0.67 nM
same,koff,[4],0.00155 s⁻¹
same,kon,[4],2.32e+06 M⁻¹ s⁻¹
"CL-82517 (antibody, human IgG4 S228P, kappa, V domains shown, Tested in human IgG4-PE format) VH: EVQLVESGGGLVKPGGSLRLSCAASGFTFSSYSMNWVRQAPGKGLEWVSSISSSRRYIYYADSVKGRFTISRDNAKNSLYLQMNSLRAEDTAVYYCARAYGQVAPYYYYGMDVWGQGTTVTVSS VL: AIQLTQSPSSLSASVGDRVTITCRASQGISSALAWYQQKPGKAPKLLIYDASSLESGVPSRFSGSGSGTDFTLTISSLQPEDFATYYCQQFNSYPLTFGGGTKVEIKR","% Max Inhibition, cAMP HTRF assay, CXCR4 BacMam HEK-293 cells",[1],79%
same,"IC50, cAMP HTRF assay, CXCR4 BacMam HEK-293 cells, 5.5 nM CXCL12",[1],34 nM
same,"% Max Inhibition, beta-arrestin reporter assay, Tango CXCR4-bla U2OS cells",[2],89.6%
same,"IC50, beta-arrestin reporter assay, Tango CXCR4-bla U2OS cells, 30 nM CXCL12",[2],0.84 nM
same,% Max Inhibition,[3],96%
same,IC50,[3],1.06 nM
"CL-82571 (antibody, human IgG4 S228P, kappa, V domains shown, Tested in human IgG4-PE format) VH: EVQLVESGGGLVQPGGSLKLSCAASGFTFSGSAMHWVRQASGKGLEWVGRIRSKANKYATAYAASVKGRFTISRDDSKNTAYVQMKSLKTEDTAVYYCTWELSNYDILTGFYYGMDVWGQGTTVTVSS VL: DIQMTQSPSTLSASVGDRVTITCRASQSISNWLAWYQQKPGKAPKVLIYKASSLESGVPSRFSGSGSGTEFTLTISSLQPDDFATYYCQQYNSFSWTFGQGTKVEIKR","% Max Inhibition, cAMP HTRF assay, CXCR4 BacMam HEK-293 cells",[1],88%
same,"IC50, cAMP HTRF assay, CXCR4 BacMam HEK-293 cells, 5.5 nM CXCL12",[1],44 nM
same,"% Max Inhibition, beta-arrestin reporter assay, Tango CXCR4-bla U2OS cells",[2],85.6%
same,"IC50, beta-arrestin reporter assay, Tango CXCR4-bla U2OS cells, 30 nM CXCL12",[2],1 nM
same,% Max Inhibition,[3],96%
same,IC50,[3],1.47 nM
"CL-83083 Fab fragment (Fab, V domains shown, Purified Fab fragment) VH: EVQLVESGGGLVQPGGSLKLSCAASGFTFSGSAMHWVRQASGKGLEWVGRIRSKANKYATAYAASVKGRFTISRDDSKNTAYVQMKSLKTEDTAVYYCTWELSNYDILTGFYYGMDVWGQGTTVTVSS VL: QAGLTQPPSVSKGLRQTATLTCTGNSNNVGNLGAAWLQQHQGHPPKLLSYRNNNRPSGISERFFASRSGNTASLTITGLQPEDEADYYCSAWDSSLSAWVFGGGTKLTVL",Kd,[4],1.86 nM
same,koff,[4],0.00102 s⁻¹
same,kon,[4],546000 M⁻¹ s⁻¹
